Source: paper PMC5517495, “Candidate SNP Markers of Familial and Sporadic Alzheimer's Diseases Are Predicted by a Significant Change in the Affinity of TATA-Binding Protein for Human Gene Promoters”

B1: TPI1 promoter rs1800202 minor allele (stopped-flow) (dsDNA)
DNA 1: CGCGGCGCTCTATAGAAGTGGGCAGT
DNA 2: ACTGCCCACTTCTATAGAGCGCCGCG
B2: TPI1 promoter rs1800202 ancestral allele (stopped-flow) (dsDNA)
DNA 1: CGCGGCGCTCTATATAAGTGGGCAGT
DNA 2: ACTGCCCACTTATATAGAGCGCCGCG

Biological target: TATA-binding protein (TBP) (human, UniProt P20226 1-339)
Experiment: stopped-flow fluorescence (FRET); 0.1 uM ODN, 0.1-1.0 uM TBP; EMSA: 20 mM HEPES-KOH pH 7.6, 5 mM MgCl2, 70 mM KCl, 1 mM EDTA, 100 ug/ml BSA, 0.01% NP-40 (printed 0.0.1%), 5% glycerol, 25 C; stopped-flow buffer not stated
Conditions: protein: recombinant; label: 5' TAMRA and 5' FAM; blunt

Sequence of TATA-binding protein (TBP) (P20226 whole entry): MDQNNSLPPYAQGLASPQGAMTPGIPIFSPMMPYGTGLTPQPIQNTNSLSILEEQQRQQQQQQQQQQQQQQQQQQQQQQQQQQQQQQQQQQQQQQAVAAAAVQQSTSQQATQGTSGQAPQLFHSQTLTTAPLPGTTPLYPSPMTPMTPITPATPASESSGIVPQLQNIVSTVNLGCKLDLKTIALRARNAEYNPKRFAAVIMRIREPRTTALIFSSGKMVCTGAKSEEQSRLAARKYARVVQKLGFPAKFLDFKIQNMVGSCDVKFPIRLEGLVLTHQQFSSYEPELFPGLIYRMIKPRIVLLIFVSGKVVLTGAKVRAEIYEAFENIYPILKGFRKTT

| Binder | Kd [nM] |
| --- | --- |
| B1 | 19 |
| B2 | 1 |
